According to publication PMC7822592, “The half-life of the bone-derived hormone osteocalcin is regulated through O-glycosylation in mice, but not in humans” (eLife, 2020):
No end group written: not given here. O‑glycan = not defined here

Experiments:
human plasmin = target: T1, human plasmin (Homo sapiens, UniProt P00747); assay: Plasmin enzymatic assay on OCN in heat-inactivated plasma; assay type: in vitro ADME; settings: 2hrs, 37°C; for % OCN from initial: heat-inactivated Bglap-/- plasma diluted two times in 100 mM Tris pH 7.5, 50 ng/ml, ELISA; for % OCN from initial in plasmin (0.3 U/ml): inset graph, heat-inactivated Bglap-/- plasma, 50 ng/ml
T1 construct: different concentration of human plasmin (Sigma); purchased Sigma P1867
T1 sequence (P00747 581-810 limits assumed): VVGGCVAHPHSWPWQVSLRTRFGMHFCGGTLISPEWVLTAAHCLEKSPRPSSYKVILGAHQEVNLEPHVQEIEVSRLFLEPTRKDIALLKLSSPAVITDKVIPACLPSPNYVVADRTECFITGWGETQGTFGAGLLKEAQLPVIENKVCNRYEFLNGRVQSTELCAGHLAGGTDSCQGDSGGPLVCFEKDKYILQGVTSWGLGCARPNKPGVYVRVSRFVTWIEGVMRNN
T1 sequence (P00747 97-580 partner limits assumed): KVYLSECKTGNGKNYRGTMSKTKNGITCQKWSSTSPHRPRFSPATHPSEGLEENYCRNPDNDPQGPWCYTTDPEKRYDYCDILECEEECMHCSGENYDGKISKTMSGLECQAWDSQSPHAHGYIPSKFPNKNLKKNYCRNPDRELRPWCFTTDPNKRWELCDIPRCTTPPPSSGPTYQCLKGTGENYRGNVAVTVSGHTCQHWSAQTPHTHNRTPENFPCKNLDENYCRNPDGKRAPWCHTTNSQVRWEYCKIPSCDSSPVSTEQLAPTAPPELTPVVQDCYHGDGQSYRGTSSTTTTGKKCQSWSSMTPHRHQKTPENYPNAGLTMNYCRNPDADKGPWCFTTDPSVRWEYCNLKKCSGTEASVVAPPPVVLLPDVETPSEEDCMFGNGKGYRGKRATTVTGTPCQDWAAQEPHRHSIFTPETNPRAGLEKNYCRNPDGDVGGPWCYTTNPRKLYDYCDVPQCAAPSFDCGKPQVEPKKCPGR
Method: The plasmin enzymatic assay was performed on plasma ex vivo in the presence of non-glycosylated OCN and glycosylated OCN as follows: plasma from Bglap-/- mice was heat-inactivated for 30 min at 56°C, then diluted two times in the enzyme assay buffer containing 100 mM Tris buffer pH 7.5. Non-glycosylated OCN or glycosylated OCN was incubated at 50 ng/ml in the diluted plasma for two hours in the presence of different concentration of human plasmin (Sigma) ranging from 0 to 0.3 U/ml. After two hours, OCN level was measured using total mouse OCN ELISA. Results are represented as percentage of initial concentration of non-glycosylated and glycosylated OCN respectively.

[1] = In vivo half-life assay, serum OCN after intraperitoneal injection in Bglap-/- mice; design: species or system mouse; settings: 40 ng/g i.p.; for serum OCN: ELISA; for in vivo half-life: estimated from declining phase after maximum at 30 min, serum ELISA
Method: For in vivo half-life assay, Bglap-/- male mice were injected intraperitoneally with 40 or 80 ng/g of body weight of mouse O-glycosylated ucOCN or non-glycosylated ucOCN, serum OCN level was analyzed at indicated time points using total mouse OCN ELISA. In all ex vivo and in vivo studies, mouse or human proteins were prepared in saline solution (0.9% NaCl) containing BSA (35 mg/ml) as a carrier.

O-gly ucOCN: O-glycosylated uncarboxylated mouse osteocalcin produced and purified from HEK293 as Fc fusion, released by thrombin (YLGASVPS(O‑glycan)PDPLEPTREQCELNPACDELSDQYGLKTAYKRIYGITI; ends and bridges not checked; also: O-glycosylated (HexNAc, Hex, NANA); UniProt P86546 50-95, looked up)
% OCN from initial (human plasmin; plasmin 0 U/ml, replicate 1): 96.7% | % OCN from initial (human plasmin; plasmin 0 U/ml, replicate 2): 103.3% | % OCN from initial (human plasmin; plasmin 0.024 U/ml, replicate 1): 81.4% | % OCN from initial (human plasmin; plasmin 0.024 U/ml, replicate 2): 86.9% | % OCN from initial (human plasmin; plasmin 0.12 U/ml, replicate 1): 63.3% | % OCN from initial (human plasmin; plasmin 0.12 U/ml, replicate 2): 75.7% | % OCN from initial (human plasmin; plasmin 0.3 U/ml, replicate 1): 34.5% | % OCN from initial (human plasmin; plasmin 0.3 U/ml, replicate 2): 40.8% | % OCN from initial in plasmin (0.3 U/ml) (human plasmin; replicate 1): 34.5% | % OCN from initial in plasmin (0.3 U/ml) (human plasmin; replicate 2): 40.8% | % OCN from initial in plasmin (0.3 U/ml) (human plasmin; replicate 3): 32.1% | % OCN from initial in plasmin (0.3 U/ml) (human plasmin; replicate 4): 27.0% | % OCN from initial in plasmin (0.3 U/ml) (human plasmin; replicate 5): 38.6% | serum OCN ([1]; Bglap-/- male mice fasted 16 hr, 15 min, mouse 1): 24.4 ng/mL | serum OCN ([1]; Bglap-/- male mice fasted 16 hr, 15 min, mouse 2): 19.4 ng/mL | serum OCN ([1]; Bglap-/- male mice fasted 16 hr, 15 min, mouse 3): 16.3 ng/mL | serum OCN ([1]; Bglap-/- male mice fasted 16 hr, 15 min, mouse 4): 21.1 ng/mL | serum OCN ([1]; Bglap-/- male mice fasted 16 hr, 15 min, mouse 5): 17.9 ng/mL | serum OCN ([1]; Bglap-/- male mice fasted 16 hr, 30 min, mouse 1): 30.7 ng/mL | serum OCN ([1]; Bglap-/- male mice fasted 16 hr, 30 min, mouse 2): 26.9 ng/mL | serum OCN ([1]; Bglap-/- male mice fasted 16 hr, 30 min, mouse 3): 24.6 ng/mL | serum OCN ([1]; Bglap-/- male mice fasted 16 hr, 30 min, mouse 4): 23.6 ng/mL | serum OCN ([1]; Bglap-/- male mice fasted 16 hr, 30 min, mouse 5): 20.9 ng/mL | serum OCN ([1]; Bglap-/- male mice fasted 16 hr, 60 min, mouse 1): 27.5 ng/mL | serum OCN ([1]; Bglap-/- male mice fasted 16 hr, 60 min, mouse 2): 23.9 ng/mL | serum OCN ([1]; Bglap-/- male mice fasted 16 hr, 60 min, mouse 3): 23.9 ng/mL | serum OCN ([1]; Bglap-/- male mice fasted 16 hr, 60 min, mouse 4): 20.4 ng/mL | serum OCN ([1]; Bglap-/- male mice fasted 16 hr, 60 min, mouse 5): 19.0 ng/mL | serum OCN ([1]; Bglap-/- male mice fasted 16 hr, 90 min, mouse 1): 26.3 ng/mL | serum OCN ([1]; Bglap-/- male mice fasted 16 hr, 90 min, mouse 2): 20.0 ng/mL | serum OCN ([1]; Bglap-/- male mice fasted 16 hr, 90 min, mouse 3): 21.1 ng/mL | serum OCN ([1]; Bglap-/- male mice fasted 16 hr, 90 min, mouse 4): 17.6 ng/mL | serum OCN ([1]; Bglap-/- male mice fasted 16 hr, 90 min, mouse 5): 15.7 ng/mL | serum OCN ([1]; Bglap-/- male mice fasted 16 hr, 120 min, mouse 1): 21.6 ng/mL | serum OCN ([1]; Bglap-/- male mice fasted 16 hr, 120 min, mouse 2): 17.9 ng/mL | serum OCN ([1]; Bglap-/- male mice fasted 16 hr, 120 min, mouse 3): 18.4 ng/mL | serum OCN ([1]; Bglap-/- male mice fasted 16 hr, 120 min, mouse 4): 17.6 ng/mL | serum OCN ([1]; Bglap-/- male mice fasted 16 hr, 120 min, mouse 5): 15.6 ng/mL | in vivo half-life ([1]; Bglap-/- male mice fasted 16 hr): 182 min | in vivo half-life ([1]; Bglap-/- male mice fasted 16 hr, listed as O-glycosylated ucOCN): ~ 182 min | serum OCN ([1]; fed Bglap-/- male mice, 15 min, mouse 1): 46.2 ng/mL | serum OCN ([1]; fed Bglap-/- male mice, 15 min, mouse 2): 44.9 ng/mL | serum OCN ([1]; fed Bglap-/- male mice, 15 min, mouse 3): 53.1 ng/mL | serum OCN ([1]; fed Bglap-/- male mice, 15 min, mouse 4): 55.0 ng/mL | serum OCN ([1]; fed Bglap-/- male mice, 15 min, mouse 5): 58.1 ng/mL | serum OCN ([1]; fed Bglap-/- male mice, 15 min, mouse 6): 56.8 ng/mL | serum OCN ([1]; fed Bglap-/- male mice, 15 min, mouse 7): 44.9 ng/mL | serum OCN ([1]; fed Bglap-/- male mice, 15 min, mouse 8): 33.3 ng/mL | serum OCN ([1]; fed Bglap-/- male mice, 15 min, mouse 9): 33.3 ng/mL | serum OCN ([1]; fed Bglap-/- male mice, 15 min, mouse 10): 59.4 ng/mL | serum OCN ([1]; fed Bglap-/- male mice, 30 min, mouse 1): 51.1 ng/mL | serum OCN ([1]; fed Bglap-/- male mice, 30 min, mouse 2): 72.5 ng/mL | serum OCN ([1]; fed Bglap-/- male mice, 30 min, mouse 3): 64.1 ng/mL | serum OCN ([1]; fed Bglap-/- male mice, 30 min, mouse 4): 65.1 ng/mL | serum OCN ([1]; fed Bglap-/- male mice, 30 min, mouse 5): 69.7 ng/mL | serum OCN ([1]; fed Bglap-/- male mice, 30 min, mouse 6): 73.2 ng/mL | serum OCN ([1]; fed Bglap-/- male mice, 30 min, mouse 7): 40.4 ng/mL | serum OCN ([1]; fed Bglap-/- male mice, 30 min, mouse 8): 59.8 ng/mL | serum OCN ([1]; fed Bglap-/- male mice, 30 min, mouse 9): 47.5 ng/mL | serum OCN ([1]; fed Bglap-/- male mice, 30 min, mouse 10): 72.5 ng/mL | serum OCN ([1]; fed Bglap-/- male mice, 60 min, mouse 1): 25.1 ng/mL | serum OCN ([1]; fed Bglap-/- male mice, 60 min, mouse 2): 44.3 ng/mL | serum OCN ([1]; fed Bglap-/- male mice, 60 min, mouse 3): 31.5 ng/mL | serum OCN ([1]; fed Bglap-/- male mice, 60 min, mouse 4): 48.0 ng/mL | serum OCN ([1]; fed Bglap-/- male mice, 60 min, mouse 5): 45.3 ng/mL | serum OCN ([1]; fed Bglap-/- male mice, 60 min, mouse 6): 33.8 ng/mL
